Data on 1 molecule can be found in US20030049649, “Targeted modification of chromatin structure” (published 2003).

This data set has as its target T1, Veg1 (unfused three-finger ZFP) (Artificial (human SP1 backbone), UniProt P08047 SEQ:1-99).
T1 chain: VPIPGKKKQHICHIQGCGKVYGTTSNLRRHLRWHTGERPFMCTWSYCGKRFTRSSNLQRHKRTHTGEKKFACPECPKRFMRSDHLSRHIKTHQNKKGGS
The experiment in a line: EMSA; apparent Kd (half-maximal binding), 100 mM KCl, 1 mM MgCl2, 100 uM ZnCl2, room temperature; not corrected for purity. Particulars: tags: none, expressed in E. coli BL21/DE3 from pET15b, >50% pure; label: 5' 32P top strand. Here is the method:
Assays for binding of Veg1 to the target oligonucleotide (above) were performed by titrating protein against a fixed amount of duplex target. Binding reactions contained 50 pM 5′ ³²P labeled double stranded target DNA, 10 mM Tris-HCl (pH 7.5), 100 mM KCl, 1 mM MgCl₂, 1 mM dithiothreitol, 10% glycerol, 200 μg/ml bovine serum albumin, 0.02% NP-40, 20 μg/ml poly dI-dC (optionally), and 100 μM ZnCl₂, in a final volume of 20 μl. Protein was added to the binding reaction as one-fifth volume from a dilution series made in 200 mM NaCl, 20 mM Tris (pH 7.5), 1 mM DTT. Binding was allowed to proceed for 45 min at room temperature. Polyacrylamide gel electrophoresis was carried out at room temperature using precast 10% or 10-20% Tris-HCl gels (BioRad, Hercules, Calif.) and Tris-Glycine running buffer (25 mM Tris-HCl, 192 mM glycine, pH 8.3) containing 0.1 mM ZnCl₂. Radioactive signals were quantitated with a Phosphorimager.
Shifted product, indicative of labeled target with bound protein, is indicated by an arrow in FIG. 2A. The amount of shifted product was determined at each protein concentration and quantitated on a Phosphorimager (Molecular Dynamics). The relative signal (percent of maximal amount of shifted product) was plotted as a function of log₁₀ protein concentration. […]

B1: Veg1 29-mer target duplex (dsDNA)
DNA 1: CATGCATAGCGGGGAGGATCGCCATCGAT
DNA 2: ATCGATGGCGATCCTCCCCGCTATGCATG
As for B1, the Kd was about 50 nM.
